Reference: patent publication US20230212268A1 (UNM RAINFOREST INNOVATIONS, published 2023)
Several values for one entry are separate records, joined by “and”; a condition that tells them apart may be missing. Identical values can stand only once.

Experiments:
[1] = target: T1, recombinant EBOV glycoprotein (EBOV (Zaire ebolavirus), UniProt Q05320 33-650); assay: ELISA dose-response fit, reference scFv22-1
T1 sequence: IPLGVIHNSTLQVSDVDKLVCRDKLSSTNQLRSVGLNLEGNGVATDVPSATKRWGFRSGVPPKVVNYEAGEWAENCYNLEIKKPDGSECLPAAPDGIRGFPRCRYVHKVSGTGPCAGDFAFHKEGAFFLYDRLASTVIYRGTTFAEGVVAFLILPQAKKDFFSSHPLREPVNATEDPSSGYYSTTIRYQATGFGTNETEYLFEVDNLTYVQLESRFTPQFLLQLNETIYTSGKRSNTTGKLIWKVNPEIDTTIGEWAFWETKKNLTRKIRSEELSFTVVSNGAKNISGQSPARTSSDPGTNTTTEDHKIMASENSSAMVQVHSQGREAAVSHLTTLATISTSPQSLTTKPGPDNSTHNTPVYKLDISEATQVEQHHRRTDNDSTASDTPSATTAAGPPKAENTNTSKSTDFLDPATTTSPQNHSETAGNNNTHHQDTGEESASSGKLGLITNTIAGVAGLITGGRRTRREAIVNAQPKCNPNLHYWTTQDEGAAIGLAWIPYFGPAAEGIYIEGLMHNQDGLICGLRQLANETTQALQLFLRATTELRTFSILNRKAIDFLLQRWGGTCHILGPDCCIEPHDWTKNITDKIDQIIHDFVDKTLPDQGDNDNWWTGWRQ

[2] = target: T2, recombinant SUDV glycoprotein (SUDV (Sudan ebolavirus), UniProt Q7T9D9 33-650); assay: ELISA dose-response fit, reference scFv22-1
T2 sequence: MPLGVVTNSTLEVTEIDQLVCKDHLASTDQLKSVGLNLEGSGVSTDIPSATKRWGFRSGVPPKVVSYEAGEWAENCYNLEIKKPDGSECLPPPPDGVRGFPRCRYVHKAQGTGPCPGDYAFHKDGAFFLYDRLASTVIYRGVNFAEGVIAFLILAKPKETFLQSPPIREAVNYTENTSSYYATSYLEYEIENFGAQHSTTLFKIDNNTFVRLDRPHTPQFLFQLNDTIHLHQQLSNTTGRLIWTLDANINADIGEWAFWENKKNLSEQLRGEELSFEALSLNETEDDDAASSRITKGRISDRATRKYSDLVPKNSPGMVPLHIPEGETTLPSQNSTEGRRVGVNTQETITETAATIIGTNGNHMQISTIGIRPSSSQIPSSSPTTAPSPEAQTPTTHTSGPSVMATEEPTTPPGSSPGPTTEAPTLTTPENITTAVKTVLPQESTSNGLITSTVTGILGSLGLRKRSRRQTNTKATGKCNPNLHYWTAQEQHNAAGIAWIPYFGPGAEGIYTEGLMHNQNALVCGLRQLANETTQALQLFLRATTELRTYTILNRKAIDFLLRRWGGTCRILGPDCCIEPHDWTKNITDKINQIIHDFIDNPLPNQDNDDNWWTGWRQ

[3] = target: T3, recombinant TAFV glycoprotein (TAFV (Tai Forest virus), UniProt Q66810 33-650); assay: ELISA dose-response fit, reference scFv22-1
T3 sequence: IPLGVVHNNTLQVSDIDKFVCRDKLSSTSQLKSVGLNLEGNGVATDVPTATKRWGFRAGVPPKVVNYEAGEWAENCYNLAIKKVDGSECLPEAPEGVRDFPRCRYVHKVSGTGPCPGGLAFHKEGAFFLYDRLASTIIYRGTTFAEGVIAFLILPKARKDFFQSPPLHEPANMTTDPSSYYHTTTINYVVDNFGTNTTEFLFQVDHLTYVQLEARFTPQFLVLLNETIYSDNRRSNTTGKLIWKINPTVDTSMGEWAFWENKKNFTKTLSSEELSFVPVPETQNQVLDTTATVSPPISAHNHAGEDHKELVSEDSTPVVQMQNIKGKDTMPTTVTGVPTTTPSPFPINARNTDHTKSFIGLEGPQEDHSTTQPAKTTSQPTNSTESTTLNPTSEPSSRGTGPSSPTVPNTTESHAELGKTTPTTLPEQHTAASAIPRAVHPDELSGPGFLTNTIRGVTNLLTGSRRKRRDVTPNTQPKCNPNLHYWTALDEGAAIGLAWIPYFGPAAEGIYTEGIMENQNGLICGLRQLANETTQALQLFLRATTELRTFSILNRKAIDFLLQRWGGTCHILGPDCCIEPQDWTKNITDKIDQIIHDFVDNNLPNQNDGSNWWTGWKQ

[4] = target: T4, recombinant RESTV glycoprotein (RESTV (Reston ebolavirus), UniProt Q66799 34-651); assay: ELISA dose-response fit, reference scFv22-1
T4 sequence: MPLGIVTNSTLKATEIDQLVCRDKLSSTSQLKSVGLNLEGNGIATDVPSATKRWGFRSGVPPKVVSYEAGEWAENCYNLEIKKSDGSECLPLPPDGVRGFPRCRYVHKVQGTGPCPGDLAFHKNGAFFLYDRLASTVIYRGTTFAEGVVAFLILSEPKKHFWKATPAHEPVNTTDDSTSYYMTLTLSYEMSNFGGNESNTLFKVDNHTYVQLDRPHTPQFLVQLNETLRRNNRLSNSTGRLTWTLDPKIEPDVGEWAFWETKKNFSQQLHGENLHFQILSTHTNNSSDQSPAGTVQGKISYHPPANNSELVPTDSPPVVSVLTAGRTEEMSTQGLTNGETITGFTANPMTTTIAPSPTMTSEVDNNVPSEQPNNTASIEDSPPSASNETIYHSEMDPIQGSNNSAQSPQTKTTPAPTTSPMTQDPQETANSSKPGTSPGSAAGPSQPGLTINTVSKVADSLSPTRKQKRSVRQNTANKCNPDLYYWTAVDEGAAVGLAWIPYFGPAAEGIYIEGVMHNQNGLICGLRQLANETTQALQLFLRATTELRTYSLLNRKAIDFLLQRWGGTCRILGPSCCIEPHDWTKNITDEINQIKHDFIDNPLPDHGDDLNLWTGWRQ

[5] = target: T3, recombinant TAFV glycoprotein; assay: ELISA dose response, GP coated

B1: EbovGPscFv4-2 (scFv)
scFv: MAWSHPQFEKTGSGGAELVKSGASVKLSCTASGFNIKDDYMHWVKQRPEQGLEWIGWIDPENGDTEYASKFQGKATITADTSSNTAYLQLSSLTSEDTAVYYCTTYYYGSAWFAYWGQGTLVTVSAGGGGSGGGGSGGGGSGGGGSASLSVSVGETVTITCRASGNIHNYLAWYQQKQGKSPQLLVYNAKTLADGVPSRFSGSGSGTQYSLKINNLQPEDFGSYYCQHFWSTPYTFGGGTKLEIKRADAAPTVSIFPPSSEQLTSGGASVVCFLNNFTHCQELQQDECS
fold affinity against scFv22-1 [1]: ~2 fold | fold affinity against scFv22-1 [2]: ~2 fold | fold affinity against scFv22-1 [3]: ~2 fold | fold affinity against scFv22-1 [4]: ~2 fold | EC50 [5]: < 9 µg/mL and 6.95 µg/mL
